The assay addresses T1, GST-CypA (UniProt P62937 1-165).
T1 construct: cyclophilin A fused to GST; source: E. coli BL21, purified on glutathione-agarose
Briefly: pull-down; GST proteins (GST, GST-CypA, GST-FKBP12) on glutathione sepharose (10 µl) added to HEK 293 T lysate (50 µl diluted to 500 µL with lysis buffer) of cells transfected with an empty (pCi) or Tat vector; 1 h at 4 °C; three washes with lysis buffer; western blots. The following applies: one partner purified. (A western blot detects proteins with antibodies after separation by electrophoresis.)

T1 sequence (P62937 whole entry, the tested form may be a part): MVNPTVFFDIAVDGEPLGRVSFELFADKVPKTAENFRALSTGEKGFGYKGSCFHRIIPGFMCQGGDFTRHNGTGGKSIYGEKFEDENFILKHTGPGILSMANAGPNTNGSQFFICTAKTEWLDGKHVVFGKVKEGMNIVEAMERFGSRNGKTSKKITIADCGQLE

B1: DHHC-20 (enzyme, human (endogenous in HEK 293 T), UniProt Q5W0Z9 1-365, looked up)
chain: MAPWTLWRCCQRVVGWVPVLFITFVVVWSYYAYVVELCVFTIFGNEENGKTVVYLVAFHLFFVMFVWSYWMTIFTSPASPSKEFYLSNSEKERYEKEFSQERQQEILRRAARALPIYTTSASKTIRYCEKCQLIKPDRAHHCSACDSCILKMDHHCPWVNNCVGFSNYKFFLLFLLYSLLYCLFVAATVLEYFIKFWTNELTDTRAKFHVLFLFFVSAMFFISVLSLFSYHCWLVGKNRTTIESFRAPTFSYGPDGNGFSLGCSKNWRQVFGDEKKYWLLPIFSSLGDGCSFPTRLVGMDPEQASVTNQNEYARSSGSNQPFPIKPLSESKNRLLDSESQWLENGAEEGIVKSGTNNHVTVAIEN
notes: S-acyl transferase DHHC-20, detected with anti-DHHC-20 (Sigma SAB 4501054); also called S-acyl transferase DHHC-20; source: endogenous, HEK 293 T lysate
As for B1, the “fold more pulled down from extracts of Tat-transfected cells against empty-vector cells” value is approximately 4 fold.

These data come from article PMC5993824 (Nature Communications, 2018).
